The record followed here is patent US20240254229A1 (Molecular Partners, published 2024).

The term Kd denotes the equilibrium constant for the complex coming apart. A high value points to weaker binding. Broadly, the koff is the rate constant with which the complex falls apart. The low end stands for a long-lived complex, the high end for a short-lived complex. What is called kon is the second-order rate constant of association. A lower kon goes with slow association.

Experiment [1] deals with T1, human scCD3εγ (scCD3εγ_Avi-Bio) (human, biotin on the C-terminal Avi-tag (in vitro, BirA) where the biotinylated form was used).
T1 construct: Used for all SPR and HTRF results on human CD3; also called recombinant human CD3; human CD3
T1 chain: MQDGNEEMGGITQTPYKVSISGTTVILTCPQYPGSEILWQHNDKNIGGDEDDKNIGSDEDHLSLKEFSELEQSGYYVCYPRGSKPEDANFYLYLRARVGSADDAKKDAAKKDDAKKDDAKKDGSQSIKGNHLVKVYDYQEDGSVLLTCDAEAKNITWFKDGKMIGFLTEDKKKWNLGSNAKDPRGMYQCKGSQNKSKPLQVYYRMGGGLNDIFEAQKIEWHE
In words: SPR (ProteOn), DARPin on GLC chip, scCD3εγ as analyte. The procedure: Similarly, the binding affinities of two purified ankyrin repeat proteins on recombinant human CD3 target were analyzed as described before. Briefly, DARPin® protein #53, DARPin® protein #54 in NaOAc pH 4.5 was coated on a GLC chip (BioRad) to a level of around 790-1500 resonance units (RU). The interaction of ankyrin repeat protein and human CD3 was then measured by injecting 300 μl running buffer (PBS, pH 7.4 containing 0.005% Tween 20®) containing serial dilutions of human scCD3εγ (56.4 μM), was diluted in PBST (PBS, pH 7.4 containing 0.005% Tween 20®) and covering a concentration range between 300 nM and 19 nM for multi-trace SPR measurements, followed by a running buffer flow for at least 10 minutes at a constant flow rate of 60 μl/min (off-rate measurement).
The regeneration was performed using 30 μl of 10 mM Glycine pH 2. The signals (i.e. resonance unit (RU) values) of the interspots and a reference injection (i.e. injection of running buffer only) were subtracted from the RU traces obtained after injection of CD3 (double-referencing). Binding parameters (KD, on-rate, off-rate) against CD3 were determined by using a standard Langmuir fit model.

Experiment [2] has as its target T2, extracellular domain of human CD70 (SEQ ID NO: 89), hCD70-Fc-trimer, ACRO Biosystems (human, UniProt P32970 52-193, chemically biotinylated where the biotinylated form was used).
T2 construct: also called human CD70-Fc-trimer; Bio.CD70
T2 sequence: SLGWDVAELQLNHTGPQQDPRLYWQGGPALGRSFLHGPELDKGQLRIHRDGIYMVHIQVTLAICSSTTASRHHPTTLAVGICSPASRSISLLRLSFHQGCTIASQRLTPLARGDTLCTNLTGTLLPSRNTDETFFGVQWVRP
The experiment is described as follows: SPR (ProteOn XPR36), target on GLC chip, DARPin as analyte.

In experiment [3] the target is T3, biotinylated extracellular domain of human CD123 (SEQ ID NO: 88), Fc and Avi tagged (human, UniProt P26951 19-303, biotinylated with BirA-GST (Avi tag)).
T3 construct: also called hCD123
T3 sequence: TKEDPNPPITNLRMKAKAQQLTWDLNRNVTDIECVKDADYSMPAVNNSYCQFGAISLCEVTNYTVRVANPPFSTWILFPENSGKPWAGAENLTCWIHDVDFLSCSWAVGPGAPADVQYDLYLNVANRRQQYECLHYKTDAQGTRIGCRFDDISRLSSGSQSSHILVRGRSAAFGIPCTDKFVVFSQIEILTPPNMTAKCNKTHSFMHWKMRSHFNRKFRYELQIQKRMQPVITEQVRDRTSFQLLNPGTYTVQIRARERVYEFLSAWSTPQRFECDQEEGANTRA
The description is as above.

Experiment [4] deals with T4, human serum albumin (human, UniProt P02768 25-609).
T4 construct: also called HSA; SA
T4 sequence (P02768 25-609 limits assumed): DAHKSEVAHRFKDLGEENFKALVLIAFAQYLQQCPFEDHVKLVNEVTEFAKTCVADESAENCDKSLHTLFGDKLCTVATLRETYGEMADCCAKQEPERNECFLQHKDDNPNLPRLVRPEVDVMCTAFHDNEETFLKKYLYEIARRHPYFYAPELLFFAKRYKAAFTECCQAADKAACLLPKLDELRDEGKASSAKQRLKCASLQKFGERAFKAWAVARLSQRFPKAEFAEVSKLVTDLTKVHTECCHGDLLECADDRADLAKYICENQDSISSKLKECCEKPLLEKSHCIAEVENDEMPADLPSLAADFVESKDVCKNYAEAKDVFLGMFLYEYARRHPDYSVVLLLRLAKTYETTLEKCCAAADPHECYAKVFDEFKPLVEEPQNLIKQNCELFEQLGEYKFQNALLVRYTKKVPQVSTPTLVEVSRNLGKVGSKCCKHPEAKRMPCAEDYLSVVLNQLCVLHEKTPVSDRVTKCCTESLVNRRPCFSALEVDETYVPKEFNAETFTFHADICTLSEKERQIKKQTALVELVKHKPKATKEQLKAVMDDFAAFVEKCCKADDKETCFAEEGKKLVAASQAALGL
The experiment is described as above.

Experiment [5] addresses T5, biotinylated extracellular domain of human CD33 (SEQ ID NO: 87), Fc and Avi tagged (human, UniProt P20138 18-259, biotinylated with BirA-GST (Avi tag)).
T5 construct: also called hCD33; human target hCD33
The experiment is described as above.

For experiment [6], the target named is T2, extracellular domain of human CD70 (SEQ …). In words: SPR (ProteOn XPR36), target on GLC chip. The text has this:
(§1) For that, DARPin® protein #27, DARPin® protein #29, DARPin® protein #47 and DARPin® protein #48 and DARPin® protein #49, DARPin® protein #50, DARPin® protein #51, DARPin® protein #52, DARPin® protein #31, DARPin® protein #53, DARPin® protein #54, DARPin® protein #55, DARPin® protein #34, DARPin® protein #33, DARPin® protein #39 and DARPin® protein #36 were subcloned and expressed as described above into derivatives of the pQE30 (Qiagen) expression vector, containing an N-terminal His-tag, CD33, CD123 and/or CD70 binding ankyrin repeat domains, followed by a CD3 specific ankyrin repeat domain and for some constructs by a human serum albumin specific ankyrin repeat domain.
(§2) Briefly, biotinylated human CD70, CD123 and CD33 was diluted in PBST (PBS, pH 7.4 containing 0.005% Tween 20®) and coated on a GLC chip (BioRad) to a level of around 200, 460 and 450 resonance units (RU) respectively. HSA in NaOAc pH 5.0 was directly immobilized on the GLC chip to a level of 800 RU. Bio.CD70, bio. CD33 and bio. CD123 required to have Neutravidin coated first to a level of 6000 RU before the biotinylated targets could be applied. The interaction of the selected ankyrin repeat proteins and human CD70, CD123 and CD33 was then measured by injecting 300 μl running buffer (PBS, pH 7.4 containing 0.005% Tween 20®) containing serial dilutions of ankyrin repeat proteins covering a concentration range between 100 nM and 2.6 nM (100, 40, 16, 6.4 and 2.6 nM respectively) for multi-trace SPR measurements, with an association of 120 s and dissociation of 1200 s using a constant flow of 100 μl/min. The regeneration was performed using 30 μl of 4 mM Glycine pH 2. The signals (i.e. resonance unit (RU) values) of the interspots and a reference injection (i.e. injection of running buffer only) were subtracted from the RU traces obtained after injection of ankyrin repeat protein (double-referencing).

Experiment [7] has as its target T3, biotinylated extracellular domain of …. In words: SPR (ProteOn XPR36), target on GLC chip.
Source text: as §1, §2

The target in experiment [8] is T4, human serum albumin. The experiment is described as follows: SPR (ProteOn XPR36), target on GLC chip.
Source text: as §1, §2

T5 sequence (P20138 18-259 R69G): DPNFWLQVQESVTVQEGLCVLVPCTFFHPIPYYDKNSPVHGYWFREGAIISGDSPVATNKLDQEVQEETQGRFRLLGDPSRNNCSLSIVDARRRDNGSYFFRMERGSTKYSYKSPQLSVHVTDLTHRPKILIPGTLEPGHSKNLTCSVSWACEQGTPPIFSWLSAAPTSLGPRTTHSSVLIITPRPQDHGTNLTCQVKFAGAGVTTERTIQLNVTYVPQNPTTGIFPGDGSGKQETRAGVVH

B1: DARPin® protein #54 (designed binder)
chain: MRGSHHHHHHDLGKKLLEAARAGQDDEVRELLKAGADVNAKDYFSHTPLHLAARNGHLKIVEVLLKAGADVNAKDFAGKTPLHLAAADGHLEIVEVLLKAGADVNAQDIFGKTPADIAADAGHEDIAEVLQKAAGSPTPTPTTPTPTPTTPTPTPTGSDLGKKLLEAARAGQDDEVRELLKAGADVNAKDYFSHTPLHLAARNGHLKIVEVLLKAGADVNAKDFAGKTPLHLAAADGHLEIVEVLLKAGADVNAQDIFGKTPADIAADAGHEDIAEVLQKAAGSPTPTPTTPTPTPTTPTPTPTGSDLGYKLLQAAYDGQLDEVRILLKAGADVNAKDSRGQTPLHYAASIGHLEIVEVLLKAGADVNAKDDHGWTPLHLAAWSGHLEIVEVLLKAGADVNAQDQEGTTPADLAAVQGHQDIAEVLQKAAGSPTPTPTTPTPTPTTPTPTPTGSDLGKKLLEAALEGQLDEVRELLKAGADVNAKDQEGYTPLHLAAALGHLEIVEVLLKAGADVNAKDSIGRTPLHLAAYKGHLEIVEVLLKAGADVNAQDLLGETPADLAAEQGHQDIAEVLQKAAGSPTPTPTTPTPTPTTPTPTPTGSDLGVKLLRAAVHGQLDEVRILLKAGADVNAKDTDGETPLHYAAQFGHLEIVEVLLKAGADVNAKDAYGATPLHWAAWHGHLEIVEVLLKAGADVNAQDVSGATPADLAAKVGHQDIAEVLQKAAGSPTPTPTTPTPTPTTPTPTPTGSDLGQKLLEAAWAGQDDEVRELLKAGADVNAKNSRGWTPLHTAAQTGHLEIFEVLLKAGADVNAKDDKGVTPLHLAAALGHLEIVEVLLKAGADVNAQDSWGTTPADLAAKYGHEDIAEVLQKAA
notes: HSA-HSA-CD70-CD123-CD33-CD3
For B1, the Kd in experiment [1] came to 129 nM; in experiment [2], 0.61 nM; in experiment [3], 33 nM; with human serum albumin [4], 1.2 nM; in experiment [5] it was 8.2 nM. Further, the koff in experiment [1] is 0.0067 s⁻¹. This molecule returned a kon in experiment [1] of 52000 M⁻¹ s⁻¹.

B2: DARPin® protein #39 (designed binder)
chain: DLGVKLLRAAVHGQLDEVRILLKAGADVNAKDTDGETPLHYAAQFGHLEIVEVLLKAGADVNAKDAYGATPLHWAAWHGHLEIVEVLLKAGADVNAQDVSGATPADLAAKVGHQDIAEVLQKAA
notes: CD33-specific ankyrin repeat domain; not shown: N-terminal His-tag
In the case of B2, binding in experiment [5] was characterised by a dissociation constant (Kd) of 24 nM. The binding result (in experiment [6]; in experiment [7]; with human serum albumin [8]) was “no binding (tested: 100 nM (highest concentration))” each time.

B3: DARPin® protein #53 (designed binder)
chain: MRGSHHHHHHDLGKKLLEAARAGQDDEVRELLKAGADVNAKDYFSHTPLHLAARNGHLKIVEVLLKAGADVNAKDFAGKTPLHLAAADGHLEIVEVLLKAGADVNAQDIFGKTPADIAADAGHEDIAEVLQKAAGSPTPTPTTPTPTPTTPTPTPTGSDLGYKLLQAAYDGQLDEVRILLKAGADVNAKDSRGQTPLHYAASIGHLEIVEVLLKAGADVNAKDDHGWTPLHLAAWSGHLEIVEVLLKAGADVNAQDQEGTTPADLAAVQGHQDIAEVLQKAAGSPTPTPTTPTPTPTTPTPTPTGSDLGKKLLEAALEGQLDEVRELLKAGADVNAKDQEGYTPLHLAAALGHLEIVEVLLKAGADVNAKDSIGRTPLHLAAYKGHLEIVEVLLKAGADVNAQDLLGETPADLAAEQGHQDIAEVLQKAAGSPTPTPTTPTPTPTTPTPTPTGSDLGVKLLRAAVHGQLDEVRILLKAGADVNAKDTDGETPLHYAAQFGHLEIVEVLLKAGADVNAKDAYGATPLHWAAWHGHLEIVEVLLKAGADVNAQDVSGATPADLAAKVGHQDIAEVLQKAAGSPTPTPTTPTPTPTTPTPTPTGSDLGQKLLEAAWAGQDDEVRELLKAGADVNAKNSRGWTPLHTAAQTGHLEIFEVLLKAGADVNAKDDKGVTPLHLAAALGHLEIVEVLLKAGADVNAQDSWGTTPADLAAKYGHEDIAEVLQKAA
notes: HSA-CD70-CD123-CD33-CD3
As for B3, the Kd in experiment [1] is 139 nM; in experiment [2], 0.7 nM; in experiment [3], 8 nM; with human serum albumin [4], 24 nM; in experiment [5], 12 nM. The same molecule registered a koff in experiment [1] of 0.0065 s⁻¹. In addition, the kon in experiment [1] was determined as 48000 M⁻¹ s⁻¹.
